Laboratory results as given in US20130123460A1, “PEPTIDE FOR IMPROVING BIOSTABILITY OF BIOACTIVE SUBSTANCE, AND BIOACTIVE SUBSTANCE HAVING IMPROVED BIOSTABILITY” (priority 2010, published 2013).

Assays:
Assay in all cases: cell-based or functional assay
[1] = target: endogenous SSTR 5 of MIN 6 cells (mouse) (UniProt O08858)
[2] = target: endogenous VIP receptor of SUP-T1 cells (human)
[3] = target: endogenous GLP-1 receptor of MIN 6 cells (mouse) (UniProt O35659)

Chain of endogenous SSTR 5 of MIN 6 cells (mouse) (O08858 whole entry): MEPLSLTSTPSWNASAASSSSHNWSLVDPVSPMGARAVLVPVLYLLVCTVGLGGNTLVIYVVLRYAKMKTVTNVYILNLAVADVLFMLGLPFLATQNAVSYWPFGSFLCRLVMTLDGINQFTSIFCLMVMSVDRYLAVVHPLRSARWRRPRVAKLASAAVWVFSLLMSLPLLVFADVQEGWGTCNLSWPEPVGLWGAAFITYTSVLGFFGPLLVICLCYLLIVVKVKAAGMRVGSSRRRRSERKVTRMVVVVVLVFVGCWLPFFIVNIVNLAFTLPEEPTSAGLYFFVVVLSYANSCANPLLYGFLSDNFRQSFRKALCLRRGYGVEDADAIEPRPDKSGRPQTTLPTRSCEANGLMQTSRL

Substance | Insulin Secretion Capacity of GLP-1 Peptide Complex in MIN 6 Cells (% of control), at 1000 pM [3] | further results
SRIF(1-14)-NH2 (peptide) |  | Suppressibility of Insulin Secretion in MIN 6 Cells, Suppression rate of insulin secretion (%) relative to native SRIF [1]: 100%
VIP(1-28)-GAm(28-44)-NH2 (peptide) |  | cAMP Productivity in SUP-T1 Cells, Activity Intensity (%) relative to native VIP [2]: 67%
VIP(1-28)-GAm(32-44)-NH2 (peptide) |  | cAMP Productivity in SUP-T1 Cells, Activity Intensity (%) relative to native VIP [2]: 85%
VIP(1-28)-GAm(37-44)-NH2 (peptide) |  | cAMP Productivity in SUP-T1 Cells, Activity Intensity (%) relative to native VIP [2]: 81%
[Ser8]-GLP-1(7-35)-GAm(1-46)-NH2 (peptide) | 18 % of control | Insulin Secretion Capacity of GLP-1 Peptide Complex in MIN 6 Cells (EC50 value) [3]: > 1 nM
[Ser8]-GLP-1(7-35)-GAm(17-46)-NH2 (peptide) | 39 % of control | Insulin Secretion Capacity of GLP-1 Peptide Complex in MIN 6 Cells (EC50 value) [3]: > 1 nM
[Ser8]-GLP-1(7-35)-GAm(21-46)-NH2 (peptide) | 45 % of control | 
[Ser8]-GLP-1(7-35)-GAm(22-46)-NH2 (peptide) | 100 % of control | 
[Ser8]-GLP-1(7-35)-GAm(25-46)-NH2 (peptide) | 104 % of control | 
[Ser8]-GLP-1(7-35)-GAm(27-46)-NH2 (peptide) | 106 % of control | 
[Ser8]-GLP-1(7-35)-GAm(28-42)-NH2 (peptide) | 105 % of control | 
[Ser8]-GLP-1(7-35)-GAm(28-44) (peptide) | 139 % of control | 
[Ser8]-GLP-1(7-35)-GAm(28-44)-NH2 (peptide) | 105 % of control | 
[Ser8]-GLP-1(7-35)-GAm(30-42)-NH2 (peptide) | 85 % of control | 
[Ser8]-GLP-1(7-35)-GAm(31-44)-NH2 (peptide) | 83 % of control | 
[Ser8]-GLP-1(7-35)-GAm(32-44)-NH2 (peptide) | 109 % of control | 
[Ser8]-GLP-1(7-35)-GAm(33-44) (peptide) | 89 % of control | 
[Ser8]-GLP-1(7-35)-GAm(33-44)-NH2 (peptide) | 118 % of control | 
[Ser8]-GLP-1(7-35)-GAm(35-44)-NH2 (peptide) | 115 % of control | 
[Ser8]-GLP-1(7-35)-GAm(37-44) (peptide) | 98 % of control | 
[Ser8]-GLP-1(7-35)-GAm(37-44)-NH2 (peptide) | 82 % of control | 
[Ser8]-GLP-1(7-35)-GAm(38-42)-NH2 (peptide) | 125 % of control | Insulin Secretion Capacity of GLP-1 Peptide Complex in MIN 6 Cells (EC50 value) [3]: 0.5 nM
[Ser8]-GLP-1(7-35)-GAm(38-44)-NH2 (peptide) | 120 % of control | 
